Measured values: publication PMC7873233

How the values were obtained:
[1] = molecular target: 16055 SOSIP.v5.2 (HIV-1 (clade C isolate 16055)); experiment: negative-stain EM; PGT145-purified protein, 20-50 ug/mL on carbon-coated Cu grids, 2% uranyl formate, 2D class averages; gp120-gp41 protomers to trimer
[2] = molecular target: 16055 SOSIP.v8.3 (HIV-1 (clade C isolate 16055)); experiment: as above

Row | Substance | percent native-like trimers [1] [%] | stoichiometry N [1] | percent native-like trimers [2] [%] | stoichiometry N [2]
1 | 16055 SOSIP.v5.2 (complex) | 72 | 3 | – | –
2 | 16055 SOSIP.v8.3 (complex) | – | – | > 95 | 3
